Laboratory results reported in paper PMC11889166.

Key:
[1] = target: EYFP-CD74minRTS (pEYFP-C1-CD74minRTS) (human) (UniProt P04233); assay: FRET or BRET; FLIM-FRET (TCSPC, two-photon microscope, FALCON) in fixed HEK293 cells co-transfected with ECFP-CXCR4 (donor) and EYFP-CD74 (acceptor)
[2] = target: EYFP-CD74minRTS (pEYFP-C1-CD74minRTS) (human) (UniProt P04233); assay: FRET or BRET; FLIM-FRET in live HEK293 cells co-transfected with ECFP-CXCR4 and EYFP-CD74, monitored at one-minute intervals during exposure to MIF-2 (4 nM, 10 min, 37 °C); MIF (8 nM) as comparison reduced the lifetime to a lesser extent
[3] = target: EYFP-CD74minRTS (pEYFP-C1-CD74minRTS) (human) (UniProt P04233); assay: FRET or BRET; FLIM-FRET (TCSPC, two-photon microscope, FALCON) in fixed Huh-7 cells co-transfected with ECFP-CXCR4 (donor) and EYFP-CD74 (acceptor); donor-alone lifetime 2.52 ns used; also with MIF-2 stimulation before fixation (FRET efficiency increased)

Chain of UniProt P04233 (P04233 whole entry): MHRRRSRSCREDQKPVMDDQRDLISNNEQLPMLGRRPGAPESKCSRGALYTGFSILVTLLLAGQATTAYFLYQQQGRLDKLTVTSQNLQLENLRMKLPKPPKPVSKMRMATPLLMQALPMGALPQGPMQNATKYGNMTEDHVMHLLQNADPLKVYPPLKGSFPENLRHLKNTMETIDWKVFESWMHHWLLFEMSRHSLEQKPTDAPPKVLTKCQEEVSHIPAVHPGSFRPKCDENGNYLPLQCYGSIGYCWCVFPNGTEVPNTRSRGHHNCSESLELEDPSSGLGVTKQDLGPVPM

Q: With “ECFP-tagged CXCR4 (pECFP-N1-CXCR4) (from UniProt P61073 1-352) (receptor)” as the substance, how does the FRET efficiency [1] read?
A: 50%

Q: And the fluorescence lifetime of the donor ECFP-CXCR4 with the acceptor, after MIF-2 stimulation [2]?
A: 2 ns

Q: And the FRET efficiency [3]?
A: 17 to 20%
